Assay [1] has as its system E. coli. Briefly: Growth curves of E. coli expressing Alt-PLC and truncations. The class given is cell-based. The following applies: relative to E. coli not expressing Alt-PLC. How it is done:
An analysis of function of the Alt-PLC truncations was performed using growth curves of Alt-PLC expressing E. coli cells (FIG. 28).
Therefore, growth curves of E. coli expressing Alt-PLC and the truncations allow determination of Alt-PLC function in vivo.

Assay [2] is described as follows: Hydrolysis of PIPx, neutral-lipid TLC. Type of assay: biochemical. Conditions: 0.2 mg/ml enzyme. As for the experimental part: Lipid samples of 0.5 μl were applied to silica 60 TLC plates and allowed to dry prior to the addition of more sample. Neutral lipids were applied to 10×20 cm pre-absorption zone-bearing silica-60 plates (Sigma-Aldrich, USA) and resolved in a solvent mixture of hexane:diethyl ether:acetic acid (9:1:0.5). Phospholipids were resolved on 20×20 cm silica-60 plates (Merck, Australia), without a pre-absorption zone, in a solvent mixture of chloroform:methanol:acetic acid:water (90:40:12:2). Lipids were detected by spraying the dried TLC plates with a solution of 0.05% rhodamine B (Sigma) in methanol and destaining was performed by repeated spraying with 5 M KOH. Lipid spots were then visualised following UV excitation at 312 nm.
Alt-PLC and Alt-PLC2 were refolded into buffer A4 at a concentration of 0.2 mg/ml and a hydrolysis reaction was performed using PIPx (mixed phosphatidylinositols, Sigma) as the substrate. The reaction was performed as described previously and the resultant neutral lipids were extracted by diethyl ether phase extraction. The samples were analysed by neutral-lipid thin-layer chromatography, on silica 60 plates with a pre-absorption zone; the mobile phase employed was hexane: diethyl ether: acetic acid (9:1:0.5).

Entries after “also recorded” stand apart in the source; their conditions may differ.

B1: t2: truncated Phytophthora sojae Alt-PLC1, SEQ ID NO: 18 (protein)
chain: YQFDSLALAGSRVSVSISTNDVGIQFTTDGNGRGAIVYNIRKQSQAALSAAIVPGLSLIAINHEPVIALEFAVKIDYSHRIEVDKSASYLGSQMPNSSWKMVDKDDHVSRSARPGSVDDLIRELVAGTEVDLVDVVSFVLFLDSFSSLNEVVDRLSAHVRNGVKSHGLIRLFIVVLLFRQSETKEADDLRDRFYSLISLNIDAKDKLVPLVEEYMSLYKEYFSLRGAGNYAVNYQAIPGMMSKVYGMESGFEPVSSGPFSAHLHRFVHPFIQRNHAATATVTMHHLLFTNPLTKAKGAIAANAFTHFVFQIHIIINQGIAATIAQRNRIRFTRFQFQATRITAFFAAIRQAHMQQFVHIFIMLQGIRHALTMQNFHRQFAHTTQTVRVHQAFFIKRRQFVQAHKALQIQANIRHARVRGFTHQTVHFTAAFIAQQLHFVHHFLCIQAQFQ
modifications: Derived from Phytophthora sojae
Take B1: in assay [1], the “growth of expressing E. coli (function in vivo)” value (from here on “growth of expressing E. coli”) is “reduced growth of E. coli”.

B2: t1: truncated Phytophthora sojae Alt-PLC1, SEQ ID NO: 17 (protein)
chain: YQFDSLALAGSRVSVSISTNDVGIQFTTDGNGRGAIVYNIRKQSQAALSAAIVPGLSLIAINHEPVIALEFAVKIDYSHRIEVDKSASYLGSQMPNSSWKMVDKDDHVSRSARPGSVDDLIRELVAGTEVDLVDVVSFVLFLDSFSSLNEVVDRLSAHVRNGVKSHGLIRLFIVVLLFRQSETKEADDLRDRFYSLISLNIDAKDKLVPLVEEYMSLYKEYFSLRGAGNYAVNYQAIPGMMSKVYGMESGFEPVSSGPFSAHLHRFV
modifications: Derived from Phytophthora sojae
Regarding B2, in assay [1], the “growth of expressing E. coli” value was “reduced growth of E. coli”.

B3: Alt-PLC2: Phytophthora sojae Alt-PLC with the additional 35aa fragment in the RAS-GEF domain, SEQ ID NO: 14 (protein, listed as Phytophthora sojae)
chain: MASGWRQKPRLDPWDPPSPPPLLEEAAPKPKPKTSRFSRRSTRAKSHARQQAQHVELEREKAFRLVRHGSDPLLNDAFYATQVQVGNFVKMGWLTKQGHMWKSWKTRFFVLFSDGTFAYYKNKGRKKIKGCMQLNDGVVSVQHVDIRLADKAYVFQIEKGFYKLLCYCCSQFEAELWVAALRSVRRVAPPCYEMDLTATEEKAGSNAVTRHLNKIFITDKQIAKRLAEFKANTHDHSYAAIHNFIVELDDAIIDRHHLEFYQDAEIELLPGNELVRLIRRHVEDRVFIPLYAEAYASLETDKVKTRRSNLEQHLKVLKQKTQADFGISKDLSVCNWKQAISVVNMLDCVSLPTHKFEVILSAGKAIMELIAQYNGELFEVSDEMLTAIFRYVVTMSSLSDLPTLRALLKYGYQHHPASQNKANVVTAFLNAIKWVECFEAGDESYQFDSLALAGSRVSVSISTNDVGIQFTTDGNGRGAIVYNIRKQSQAALSAAIVPGLSLIAINHEPVIGMPFDKIIQRVRTAALPKQLTFMTEFYYYQLLSLDSEMYQYLMCIAARRGDLDSAAWMRSSTIELNTLCSWEKSRGKQVFGFTPVSGKGSPLHAAVHNGQLSMVNYLISRGADVNLCNQKGRRPLHVVKQSIDMAMIIQSLIDAGADIDAMEKHGLTPLMFMCSRASLEGSATLLALGADVHCVAWTNGFSALEFAVKSEHTELVELCLSKGANPNAPTLDGNTSLHLAATQANTDIILRLLQGGANPNVQNRYGQTPAALLLASSPGGSSDVRILCLEILTCAGCRLDKRDLFGRQASHLASISRDSHVVDLLRKLGSLNREANGVEIDIFGCSSVDYSHRIEVDKSASYLGSQMPNSSWKMVDKDDHVSRSARPGSVDDLIRELVAGTEVDLVDVVSFVLFLDSFSSLNEVVDRLSAHVRNGVKSHGLIRLFIVVLLFRQSETKEADDLRDRFYSLISLNIDAKDKLEYFSLRGAGNYAVNYQAIPGMMSKVYGMESGFEPVSSGPFSAHLHRFVDAERWAEQCTLLTHAVFCKIPVRDFIPTGSKKKHSVEFTSIKRWFQHISAFVINAVLVQNTPEERAEVISFYLKVADYCISLHNHDTLASILYALQSTAVQRLRKTIDCLSLDAKKMMNEMQLLSDKGCREMNRLMRKTANPSMPYIGLYLQGFVGLNELPAFDKEGLVNANRLRRMGELAMEILHRQSVAYTLQHDEDVNKLLHVSLPYSSEESRYARSLELEPREADAIPLSDRGSYTLIDDDVDLENEVRESIGGDGTFGFRQWIRKQQVVHRNRSRSSVIALY
Consider B3, for which the “monoacylglycerol production / phospholipase C activity level in vitro” value in assay [2] was “detection of monoacylglycerol production”. In addition, the “growth of expressing E. coli” value in assay [1] is “same reduced growth rate shown by cells expressing Alt-PLC1”.

B4: t3: truncated Phytophthora sojae Alt-PLC1, SEQ ID NO: 19 (protein)
chain: YQFDSLALAGSRVSVSISTNDVGIQFTTDGNGRGAIVYNIRKQSQAALSAAIVPGLSLIAINHEPVIALEFAVKIDYSHRIEVDKSASYLGSQMPNSSWKMVDKDDHVSRSARPGSVDDLIRELVAGTEVDLVDVVSFVLFLDSFSSLNEVVDRLSAHVRNGVKSHGLIRLFIVVLLFRQSETKEADDLRDRFYSLISLNIDAKDKLVPLVEEYMSLYKEYFSLRGAGNYAVNYQAIPGMMSKVYGMESGFEPVSSGPFSAHLHRFVHPFIQRNHAATATVTMHHLLFTNPLTKAKGAIAANAFTHFVFQIHIIINQGIAATIAQRNRIRFTRFQFQATRITAFFAAIRQAHMQQFVHIFIMLQGIRHALTMQNFHRQFAHTTQTVRVHQAFFIKRRQFVQAHKALQIQANIRHARVRGFTHQTVHFTAAFIAQQLHFVHHFLCIQAQFQIKANHFRTFFRGVLHQHRVNHKRANMLKPTFNAGKFHAMLFLATGRNKITHRNFAKHRMGQQGALFRPTFRI
modifications: Derived from Phytophthora sojae
In the case of B4, the “growth of expressing E. coli” value in assay [1] is given as “reduced growth of E. coli; also recorded: significantly higher lethality”.

Values taken from patent US20140329787A1, “PHYTOPHTHORA PHOSPHOLIPASE C” (Deakin University, priority 2011, published 2014).
